Test results reported in article PMC7039449, “FMN-dependent oligomerization of putative lactate oxidase from Pediococcus acidilactici” (PLoS ONE, 2020).

Legend:
[1] = biological target: T1, PaLCTO (Pediococcus acidilactici, UniProt E0NE46); assay: X-ray crystallography, […] Å (refolded with FMN: 6RHS, […] Å); SEC; type: binding; details: FMN in active site; FMN addition turns apo monomer into tetramer
T1 construct: gene lctO; recombinant in E. coli, pNH-TrxT, N-terminal thioredoxin/His tag cut with TEV; 39 kDa monomer, FMN-containing homotetramer (158 kDa)
T1 sequence (E0NE46 1-369): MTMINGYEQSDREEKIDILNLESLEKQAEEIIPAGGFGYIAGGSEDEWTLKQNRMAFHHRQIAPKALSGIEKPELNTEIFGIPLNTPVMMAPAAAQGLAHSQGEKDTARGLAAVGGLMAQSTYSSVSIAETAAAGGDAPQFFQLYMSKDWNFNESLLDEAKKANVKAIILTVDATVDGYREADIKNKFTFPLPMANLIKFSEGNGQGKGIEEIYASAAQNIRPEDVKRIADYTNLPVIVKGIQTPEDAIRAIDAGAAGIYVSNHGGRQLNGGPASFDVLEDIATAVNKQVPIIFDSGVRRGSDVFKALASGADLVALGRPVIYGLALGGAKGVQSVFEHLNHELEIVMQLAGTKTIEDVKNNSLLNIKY

[2] = biological target: the molecule itself; assay: SEC; analytical SEC of the yellow, FMN-containing fraction; Superdex 200 Increase 10/300 calibrated with Bio-Rad standards; 30 mM Hepes pH 7.5, 350 mM NaCl, 0.5 mM TCEP
[3] = substrate: C[C@H](O)C(=O)O; assay: purified protein; details: pH 6.5 (DMGA buffer), 37 °C, FMN added, air, L-lactate 0.2-2.0 mM, in-house recombinant enzyme
[4] = biological target: the molecule itself; assay: SEC; recombinant AvLCTO, data not shown

`Cc1cc2nc3c(=O)[nH]c(=O)nc-3n(C[C@H](O)[C@H](O)[C@H](O)COP(=O)(O)O)c2cc1C` [FMN] was tested, and the “X-ray crystallography, 1.9 Å (refolded with FMN: 6RHS, 2.6 Å); SEC” value [1] was “The hydrogen bonding network between FMN and the surrounding residues contains in total twelve interactions”.

B1: Pediococcus acidilactici lactate oxidase (enzyme)
chain: T1 sequence (E0NE46 1-369)
notes: putative L-lactate oxidase of Pediococcus acidilactici DSM 20284, Uniprot E0NE46; gene cloned from genomic DNA into pNH-TrxT; theoretical monomer mass 39 kDa; The same polypeptide without FMN (colourless fraction, or deflavinated) is a monomer that lacks secondary structure by CD; also called PaLCTO; WT PaLCTO; source: E. coli BL21 (DE3), purified (Ni-NTA, TEV cleavage, second Ni-NTA, SEC); not …
B1 was tested, and the “stoichiometry N” value [2] was 4.

B2: Aerococcus viridans lactate oxidase (enzyme)
chain: MNNNDIEYNAPSEIKYIDVVNTYDLEEEASKVVPHGGFNYIAGASGDEWTKRANDRAWKHKLLYPRLAQDVEAPDTSTEILGHKIKAPFIMAPIAAHGLAHTTKEAGTARAVSEFGTIMSISAYSGATFEEISEGLNGGPRWFQIYMAKDDQQNRDILDEAKSDGATAIILTADSTVSGNRDRDVKNKFVYPFGMPIVQRYLRGTAEGMSLNNIYGASKQKISPRDIEEIAGHSGLPVFVKGIQHPEDADMAIKRGASGIWVSNHGARQLYEAPGSFDTLPAIAERVNKRVPIVFDSGVRRGEHVAKALASGADVVALGRPVLFGLALGGWQGAYSVLDYFQKDLTRVMQLTGSQNVEDLKGLDLFDNPYGYEY
notes: L-lactate oxidase of Aerococcus viridans, cloned from genomic DNA of strain DSM 20340; also called AvLCTO; recombinant AvLCTO; source: E. coli BL21 (DE3), purified
For B2, the Km [3] was 520 ± 50 µM and the “stoichiometry N” value [4] was 4.
